5 molecules from article PMC2808332, “Expanding the Substantial Interactome of NEMO Using Protein Microarrays” (PLoS ONE, 2010) can be followed below.

To fix the notation:
B1: DnaJ (Hsp40) homolog, subfamily C, member 8 (natural protein, human, UniProt O75937 1-253, looked up)
chain: MAASGESGTSGGGGSTEEAFMTFYSEVKQIEKRDSVLTSKNQIERLTRPGSSYFNLNPFEVLQIDPEVTDEEIKKRFRQLSILVHPDKNQDDADRAQKAFEAVDKAYKLLLDQEQKKRALDVIQAGKEYVEHTVKERKKQLKKEGKPTIVEEDDPELFKQAVYKQTMKLFAELEIKRKEREAKEMHERKRQREEEIEAQEKAKREREWQKNFEESRDGRVDSWRNFQANTKGKKEKKNRTFLRPPKVKMEQRE
notes: DnaJ (Hsp40) homolog, subfamily C, member 8, human; also called DNAJC8; source: insect cell/baculovirus, purified, spotted (Invitrogen Protoarray v4.0)
B2: Hemoglobin, zeta (natural protein, human, UniProt P02008 1-142, looked up)
chain: MSLTKTERTIIVSMWAKISTQADTIGTETLERLFLSHPQTKTYFPHFDLHPGSAQLRAHGSKVVAAVGDAVKSIDDIGGALSKLSELHAYILRVDPVNFKLLSHCLLVTLAARFPADFTAEAHAAWDKFLSVVSSVLTEKYR
notes: Hemoglobin, zeta, human; also called HBZ; source: insect cell/baculovirus, purified, spotted (Invitrogen Protoarray v4.0)
B3: Vesicle-associated membrane protein 3 (cellubrevin) (natural protein, human, UniProt Q15836 1-100, looked up)
chain: MSTGPTAATGSNRRLQQTQNQVDEVVDIMRVNVDKVLERDQKLSELDDRADALQAGASQFETSAAKLKRKYWWKNCKMWAIGITVLVIFIIIIIVWVVSS
notes: Vesicle-associated membrane protein 3 (cellubrevin), human; also called VAMP3; source: insect cell/baculovirus, purified, spotted (Invitrogen Protoarray v4.0)
B4: Chromosome 19 open reading frame 12 (natural protein, human, UniProt Q9NSK7-4 1-141, looked up)
chain: MTIMVEDIMKLLCSLSGERKMKAAVKHSGKGALVTGAMAFVGGLVGGPPGLAVGGAVGGLLGAWMTSGQFKPVPQILMELPPAEQQRLFNEAAAIIRHLEWTDAVQLTALVMGSEALQQQLLAMLVNYVTKELRAEIQYDD
notes: Chromosome 19 open reading frame 12, human; also called C19ORF12; source: insect cell/baculovirus, purified, spotted (Invitrogen Protoarray v4.0)
B5: Family with sequence similarity 128, member A (natural protein, human, UniProt Q6P582 1-158, looked up)
chain: MAAQGVGPGPGSAAPPGLEAARQKLALRRKKVLSTEEMELYELAQAAGGGIDPDVFKILVDLLKLNVAPLAVFQMLKSMCAGQRLASEPQDPAAVSLPTSSVPETRGRDKGSAALGGVLALAERSNHEGSSQRMPRQPSATRLPKGGGPGKSPTQGST
notes: also called FAM128A; source: insect cell/baculovirus, purified, spotted (Invitrogen Protoarray v4.0)

For the experiment, the target named is T1, NEMO (NF-κB essential modulator), tag-free, biotinylated (human, UniProt Q9Y6K9 1-419, biotin (in vitro biotinylation kit, biotin:NEMO molar ratio 9:1)).
T1 construct: NEMO, NF-κB essential modulator, human, 48 kDa; also called biotinylated NEMO; biotin-NEMO; source: E. coli BL21(DE3), purified (glutathione sepharose), GST removed with thrombin, biotinylated in vitro
As to the kind of experiment: peptide or protein array; Invitrogen Protoarray v4.0, about 8,400 human proteins spotted on nitrocellulose-coated glass slides; 10 µg biotinylated tag-free NEMO in 120 µl probing buffer (PBS, 0.5 mM DTT, 5 mM MgCl2, 5% glycerol, 0.05% Triton X-100), 4°C, 1.5 h; bound NEMO detected with labelled streptavidin; hits Z-score > 3, hits of the biotin-GST control array subtracted. As to conditions: both partners purified.
In the case of B1, the binding result was “binds”.

Turning to B2, the binding result is “binds”.

With B3, the binding result is reported as “binds”.

Consider B4, for which the binding result was “binds”.

As to B5, the binding result was “binds”.
